Results reported in patent US20250340608A1 (PROTAGONIST THERAPEUTICS, published 2025).
Numbered stars: 1 amine (or outer) side, 2 acyl side, 3 side chain; on linkers, the order of the positions; unused ones are H or OH. Bridge positions count the residues as written; N and C are the ends. Square brackets hold non-standard residues; d marks the D form. Primed or numbered codes have the meaning given here. Ends that are not written are not given here. * marks the point of attachment. Ida = iminodiacetic acid, O=C(CN(CC(=O)[*:3])[*:1])[*:2]; PEG8(3) = PEG8 side chain conjugate on Lys; Myristoyl = CCCCCCCCCCCCCC(=O)*; β3hP = O=C(O)C[C@@H]1CCCN1; Isovaleryl = CC(C)CC(=O)*; Octanoyl = CCCCCCCC(=O)*; Albu = not defined here

T1: human ferroportin (SLC40A1) fused in frame with GFP, stably expressed in HEK293 cells (human, UniProt Q9NP59 1-571)
T1 sequence (looked up): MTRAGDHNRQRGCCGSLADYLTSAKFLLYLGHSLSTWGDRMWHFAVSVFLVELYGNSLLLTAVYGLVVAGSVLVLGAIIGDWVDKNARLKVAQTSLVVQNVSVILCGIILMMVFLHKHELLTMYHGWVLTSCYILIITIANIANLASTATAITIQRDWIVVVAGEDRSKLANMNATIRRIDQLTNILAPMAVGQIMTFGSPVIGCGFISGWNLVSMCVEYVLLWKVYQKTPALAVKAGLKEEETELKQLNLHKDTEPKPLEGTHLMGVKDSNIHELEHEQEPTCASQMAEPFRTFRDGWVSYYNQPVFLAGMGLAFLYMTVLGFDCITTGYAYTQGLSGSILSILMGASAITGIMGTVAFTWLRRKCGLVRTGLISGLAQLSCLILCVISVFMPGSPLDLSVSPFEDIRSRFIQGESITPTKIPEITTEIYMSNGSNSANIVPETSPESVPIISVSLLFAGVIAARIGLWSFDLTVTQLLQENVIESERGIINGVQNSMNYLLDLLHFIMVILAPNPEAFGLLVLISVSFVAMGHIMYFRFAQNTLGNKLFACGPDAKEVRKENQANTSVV


biological target: T1, human ferroportin (SLC40A1) fused in …; assay: cell-based or functional assay

| In Vitro Activity EC50 [nM] | Binder |
| --- | --- |
| 21 | Isovaleryl-DTHFPCIIFGPRSKGCK-NH2 (not fully specified (bridges); cysteine pairing not given here) [Compound 115] |
| 10 | Isovaleryl-DTHFPCIIFEPRSKGWVCK-NH2 (not fully specified (bridges); cysteine pairing not given here) [Compound 105] |
| 35 | Isovaleryl-DTHFPCIQFGPRSKGWVCK-NH2 (not fully specified (bridges); cysteine pairing not given here) [Compound 10] |
| 32 | Isovaleryl-DTHFPCIKFGPRSKGWVCK-NH2 (not fully specified (bridges); cysteine pairing not given here) [Compound 9] |
| 7 | DTHFPCIKFKPRSKGWVCK (not fully specified; N-terminal isovaleric acid; K10(PEG8); C-terminal NH2) [Compound 150] |
| 18 | Isovaleryl-DTHFPCIKFGPRSKGWVCK(PEG8(3))-NH2 (not fully specified (bridges); cysteine pairing not given here) [Compound 153] |

biological target: T1, human ferroportin (SLC40A1) fused in …; assay: cell-based or functional assay; remark: another data set of the same source

| Potency EC50 [nM] | Potency: % (activity) at 1 µM [%] | Potency EC50 (nM) | Binder |
| --- | --- | --- | --- |
|  | 64 |  | H-DTHFPCIKFF-NH2 [Compound 297] |
|  | 64 |  | H-LTHFPCIIF-NH2 [Compound 299] |
|  | 52 |  | H-DTHFPCIF-NH2 [Compound 293] |
|  | 62 |  | H-DTHFPCIIR-NH2 [Compound 305] |
|  | 89 |  | H-DTHFPCILF-NH2 [Compound 308] |
|  |  | > 1000 | Isovaleryl-DTHFPCIKKEPHSKECK-NH2 (not fully specified (bridges); cysteine pairing not given here) [Compound 357] |
|  | 60 |  | H-DTKFPCIIF-NH2 [Compound 302] |
|  | 0 |  | H-DTHFPCIEK-NH2 [Compound 310] |
|  | 55 |  | H-DTHFPCILK-NH2 [Compound 309] |
|  | 75 |  | H-DTHFPCIVF-NH2 [Compound 307] |
|  | 77 |  | H-ETHFPCIIF-NH2 [Compound 300] |
| 6 |  |  | DTHFPCIKFKPHSKECK (not fully specified; N-terminal isovaleric acid; K10(isoglu-Palm); C-terminal NH2) [Compound 358] |
|  | 55 |  | H-DTHFPCIIK-NH2 [Compound 304] |

Further lines, the binder ahead of its results:

| Binder | Potency EC50 [nM] | Potency: % (activity) at 1 µM [%] | Potency EC50 (nM) |
| --- | --- | --- | --- |
| DTHFPCIKFKPRSKGWVC (N-terminal isovaleric acid; K10(lauric acid); C-terminal NH2) [Compound 248] | 10 |  |  |
| Isovaleryl-DTHFPCIKF-NH2 (SMILES CC[C@H](C)[C@H](NC(=O)[C@H](CS)NC(=O)[C@@H]1CCCN1C(=O)[C@H](Cc1ccccc1)NC(=O)[C@H](Cc1c[nH]cn1)NC(=O)[C@@H](NC(=O)[C@H](CC(=O)O)NC(=O)CC(C)C)[C@@H](C)O)C(=O)N[C@@H](CCCCN)C(=O)N[C@@H](Cc1ccccc1)C(N)=O) [Compound 291] | 7 |  |  |
| H-ATHFPCIIF-NH2 [Compound 284] |  |  | > 1000 |
| H-DTHFPCAIF-NH2 [Compound 279] |  |  | > 1000 |
| [Ida]THFPCIKFEPRSKGWVCK(Myristoyl)-NH2 (disulfide 6-18 (inferred)) [Compound 254] | 20 |  |  |
| H-DTHFACIIF-NH2 [Compound 280] |  |  | > 1000 |
| [Ida]THF[β3hP]CIIF-NH2 [Compound 285] |  |  | > 1000 |
| DTHFPCIKFKPRSKGWVC (N-terminal isovaleric acid; K10(mysteric acid); C-terminal NH2) [Compound 247] | 7 |  |  |
| Isovaleryl-DTHFPCIKFEPHSK(Albu)GCK-NH2 (disulfide 6-16 (inferred); reading uncertain) [Compound 265] | 6 |  |  |
| Isovaleryl-DTAFPCIKFEPRSKEC-NH2 (disulfide 6-16 (inferred)) [Compound 267] |  |  | > 1000 |
| Isovaleryl-HFPCIKFEPRSKGWVCK(Octanoyl)-NH2 (disulfide 4-16 (inferred)) [Compound 261] | > 300 |  |  |
| DTHFPCIKFKPRSKGWVC (N-terminal isovaleric acid; K10(octanoic acid); C-terminal NH2) [Compound 250] | 30 |  |  |
| H-DTHFPCIIA-NH2 [Compound 278] |  |  | > 1000 |
| H-DTAFPCIIF-NH2 [Compound 283] | 739 |  |  |
| H-DTHFPCIEF-NH2 [Compound 287] |  |  | > 1000 |

biological target: T1, human ferroportin (SLC40A1) fused in …; assay: cell-based or functional assay; remark: another data set of the same source

| EC50 (nM) (n = 3) | % Activity At 1 uM [%] | Binder |
| --- | --- | --- |
| > 300 |  | H-DTHFPCIKFF-NH2 [Compound 297] |
| > 300 |  | H-DTHFPCIIK-NH2 (also: homodimer via disulfide between Cys6 of each monomer) [Compound 318] |
| > 300 |  | H-DTHFPCILK-NH2 (also: homodimer via disulfide between Cys6 of each monomer) [Compound 322] |
| > 300 |  | H-DTHFPCIF-NH2 (also: homodimer via disulfide between Cys6 of each monomer) [Compound 312] |
| > 1000 |  | H-DTHFPCIF-NH2 [Compound 293] |
| 130 |  | H-DTHFPCIKFF-NH2 (also: homodimer via disulfide between Cys6 of each monomer) [Compound 314] |
| > 1000 |  | H-DTHFPCIIR-NH2 [Compound 305] |
| > 1000 |  | H-DTKFPCIIF-NH2 [Compound 302] |
| > 1000 | 0 | H-DTHFPCIEK-NH2 (also: homodimer via disulfide between Cys6 of each monomer) [Compound 323] |
| > 1000 | 0 | H-DTHFPCIEK-NH2 [Compound 310] |
| > 300 |  | H-DTHFPCILK-NH2 [Compound 309] |
| 268 |  | H-DTHFPCIIR-NH2 (also: homodimer via disulfide between Cys6 of each monomer) [Compound 319] |
| > 1000 |  | H-DTHFPCIIK-NH2 [Compound 304] |
| 137 |  | H-DTKFPCIIF-NH2 (also: homodimer via disulfide between Cys6 of each monomer) [Compound 317] |
|  | 100 | Isovaleryl-DTHFPCIIF-NH2 (also: homodimer via disulfide between Cys6 of each monomer) [Compound 325] |

Second part, the binder before the results:

| Binder | EC50 (nM) (n = 3) | % Activity At 1 uM [%] |
| --- | --- | --- |
| Isovaleryl-DTHFPCIKF-NH2 (SMILES CC[C@H](C)[C@H](NC(=O)[C@H](CS)NC(=O)[C@@H]1CCCN1C(=O)[C@H](Cc1ccccc1)NC(=O)[C@H](Cc1c[nH]cn1)NC(=O)[C@@H](NC(=O)[C@H](CC(=O)O)NC(=O)CC(C)C)[C@@H](C)O)C(=O)N[C@@H](CCCCN)C(=O)N[C@@H](Cc1ccccc1)C(N)=O) [Compound 291] | 7 | 100 |
| Isovaleryl-DTHFPCIIF-NH2 (SMILES CC[C@H](C)[C@H](NC(=O)[C@H](CS)NC(=O)[C@@H]1CCCN1C(=O)[C@H](Cc1ccccc1)NC(=O)[C@H](Cc1c[nH]cn1)NC(=O)[C@@H](NC(=O)[C@H](CC(=O)O)NC(=O)CC(C)C)[C@@H](C)O)C(=O)N[C@H](C(=O)N[C@@H](Cc1ccccc1)C(N)=O)[C@@H](C)CC) [Compound 288] |  | 100 |
